From patent US20190111122A1 (ENGINEERED ANTIGENS, published 2019)

Molecular target: T1, biotinylated human transferrin (human, UniProt P02787 20-698, biotinylated (sites not given))
T1 construct: Used at 0.05-0.1 mg/mL as the labelling reagent; detected with R-phycoerythrin-conjugated streptavidin; also called Sigma-aldrich T3915-5MG
Experiment: flow cytometry, E. coli C43 (DE3) cells expressing Nlobe_HpuA with SLAM1 or SLAM2, labelled with biotinylated human transferrin

T1 sequence (P02787 20-698 limits assumed): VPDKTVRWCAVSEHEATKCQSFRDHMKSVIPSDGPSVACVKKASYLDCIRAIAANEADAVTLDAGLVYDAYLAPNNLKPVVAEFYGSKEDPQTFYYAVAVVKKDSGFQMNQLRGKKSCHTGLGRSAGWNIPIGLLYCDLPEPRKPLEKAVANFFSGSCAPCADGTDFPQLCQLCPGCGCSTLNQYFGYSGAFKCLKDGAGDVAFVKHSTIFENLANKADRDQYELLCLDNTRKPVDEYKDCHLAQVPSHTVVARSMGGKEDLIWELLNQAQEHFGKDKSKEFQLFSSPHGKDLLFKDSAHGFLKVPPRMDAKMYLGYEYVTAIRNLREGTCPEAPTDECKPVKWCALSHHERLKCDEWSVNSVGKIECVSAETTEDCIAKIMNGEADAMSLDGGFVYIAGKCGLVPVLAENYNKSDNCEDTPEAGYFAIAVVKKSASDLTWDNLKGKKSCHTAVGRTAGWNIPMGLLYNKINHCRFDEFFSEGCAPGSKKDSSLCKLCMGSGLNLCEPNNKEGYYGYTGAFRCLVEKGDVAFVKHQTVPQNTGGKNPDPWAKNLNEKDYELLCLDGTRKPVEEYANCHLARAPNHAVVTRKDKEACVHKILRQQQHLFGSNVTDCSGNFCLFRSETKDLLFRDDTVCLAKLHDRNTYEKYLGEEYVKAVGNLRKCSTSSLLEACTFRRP

B1: TbpB N-lobe fused to HpuA (N. meningitidis) (other)
chain: CLGGGGSFDLDSVETVQDMHSKPKYEDEKSQPESQQDVSENSGAAYGFAVKLPRRNAHFNPKYKEKHKPLGSMDWKKLQRGEPNSFSERDELEKKRGSSELIESKWEDGQSRVVGYTNFTYVRSGYVYLNKNNIDIKNNIVLFGPDGYLYYKGKEPSKELPSEKITYKGTWDYVTDAMEKQRFEGLGSAAGGDKSGALSALEEGVLRNQAEASSGHTDFGMTSEFEVDFSDKTIKGTLYRNNRITQNNSENKQIKTTRYTIQATLHGNRFKGKALAADKGATNGSHPFISDSDSLEGGFYGPKGEELAGKFLSNDNKVAAVFGAKQKDKKDAGGGVAEPHVPVSIPTATPLPTGEVKLSDDNSKIENINTADTGSTSGISIQQRKYEVESYGIKREEKAFIFQTPGGAQYALSSYADPITVSYSSPDFKIPDRHAGQRLADGSRIFICCSESGATSYAEITKQDYMKFGAWIGPNGEIDLFAGGFPVGKTPKPKYSWGNTEPETKGKGKITYQVWGIRVRNRQFVTSSYTPPKSGSYYGTLANTPVLSFITANFNSNKLAGEIRGNSDYGPSVKIENATINSLSFSGTATSGGKTGNLEGKFFGKFNGYRDTETSIGGKITFDGDRSLDTVFGGVSYKKELENNTDTSTTHLTK
notes: also called Nlobe-HpuA
**Q.** Does B1 bind?
**A.** Result: binds
